Data on 167 variants can be found in the RNAGym collection of RNA variant scans (doi:10.1073/pnas.2313332121).

This sample holds only a part of the variants without activity.

B1: TPR 5TU (parent)
chain: GGAUCUUCUCGAUCUAACAAAAAAGACAAAUCUGCCACAAAGCUUGAGAGCAUCUUCGGAUGCAGAGGCGGCAGCCUUCGGUGGCGCGAUAGCGCCAACGUUCUCAACUAUGACACGCAAAACGCGUGCUCCGUUGAAUGGAGUUUAUCAUG

The variants in the data set derive from B1. The experiment in a line: polymerase ribozyme fitness, log enrichment relative to wild type (log ratio); higher = more active; in vitro selection for triplet polymerase activity. In short, it runs like this: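 After PCR construction and transcription, each subunit's mutant library from a heterodimeric triplet polymerase ribozyme was annealed with a biotinylated primer, the partner subunit and triplets. Incubation was frozen, at −7 °C, and extended constructs were gel-excised, bound to streptavidin beads and amplified by RT-PCR, in one selection round done in triplicate. Fitness is the logarithm of a genotype's enrichment divided by that of the wild type, from inverse-variance-weighted replicate averages of Illumina-sequenced inputs and outputs. The base of the logarithm is 2, and genotypes needed ≥10 input reads and ≥1 read per output.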
Take C87U G112A: the “polymerase ribozyme fitness (log ratio)” value is -3.91.

Consider C10A A39U U55A C57A U90G G92A, for which the “polymerase ribozyme fitness (log ratio)” value was ≤ -4.2. With A39U G50U U139G the figure was -2.97; with A16C C43A A52C G70A C131U, ≤ -4.2; with C5U G62C G88C, ≤ -4.2. Under A16U A41C G42A G65A A66G C87A U90G stands ≤ -4.2. Take G46A C93U C129G: the “polymerase ribozyme fitness (log ratio)” value was ≤ -4.2. Under A22U C93U stands -1.47. As for A20U G50U C76A G92C A110G C118G A137U, the “polymerase ribozyme fitness (log ratio)” value is ≤ -4.2. With A22C the figure was -0.18; with U56A U82A C96A C114G, -3.42. Regarding A30U U56A G58C C132A A147U, the “polymerase ribozyme fitness (log ratio)” value is ≤ -4.2. With A39U U56A G62C C85A C95G U101A C123G G143C the figure was ≤ -4.2. Under U15C A17U C51U G83A C123G G152A stands -2.38; under U45A A49G C57A U61G G68U C114U A150U, ≤ -4.2. Under C38A U53A C95G A97G C116U stands -2.22; under C18G G92A, -3.23.

As to C87G C93U G124C, the “polymerase ribozyme fitness (log ratio)” value is ≤ -4.2. Take A19U A91U: the “polymerase ribozyme fitness (log ratio)” value was ≤ -4.2.

Turning to A16C A121G, the “polymerase ribozyme fitness (log ratio)” value was -1.15.

Turning to G25A A39G G68C C95U, the “polymerase ribozyme fitness (log ratio)” value was ≤ -4.2. With U56A G94C A115C A121U U134A A147U the figure was -3.74; with C76A G83U C99U A122U, ≤ -4.2; with C27G C57G U61A A106C, ≤ -4.2. Under A17G C69A U82G G86C G117U G140C U145A stands ≤ -4.2. Take G83C A107U G143A U146C: the “polymerase ribozyme fitness (log ratio)” value is ≤ -4.2. With U13G A49U C57U C87G C118U U139C U151A the figure was ≤ -4.2; with A20C C85G A113U, -3.57. With U55A U82G G92A C103U G124A the figure was -3.62; with C5G A21G C57G C93U A115U, -3.31; with G83C C85U C87U, -2.71. Take A23C A41C C85A U90G G124U U135G: the “polymerase ribozyme fitness (log ratio)” value is ≤ -4.2. As for C10G C63G C79U C85G C99A A107G A121U G143A, the “polymerase ribozyme fitness (log ratio)” value is ≤ -4.2. Consider G46U C96U A142G, for which the “polymerase ribozyme fitness (log ratio)” value was -1.19. Under G11C A19C stands -1.41.

Consider G11C G59A A60C, for which the “polymerase ribozyme fitness (log ratio)” value was -3.14. With A52G G59C C99U the figure was -1.42; with A21C A89U U104A, -0.361; with A52C C63U C93A A107U C125U U146A, ≤ -4.2. Under U6G C54A C75G C85A C105U A106U U111A G136U stands ≤ -4.2; under U56G C85G A119G G141C, -2.08; under C95A C96G, -2.25. Take U33A U55G A73G G83U G86U A89U G136A: the “polymerase ribozyme fitness (log ratio)” value is ≤ -4.2. As for U15C G92A C99G U148A, the “polymerase ribozyme fitness (log ratio)” value is ≤ -4.2. Under C35A G83C C114A stands ≤ -4.2.

For G11U A29U U55G G92U C93G C95A G133A U144A A150C, the “polymerase ribozyme fitness (log ratio)” value was ≤ -4.2.

In the case of A16G C99U, the “polymerase ribozyme fitness (log ratio)” value is -1.33. Turning to C14G A23U A52C G84A C118U, the “polymerase ribozyme fitness (log ratio)” value was ≤ -4.2. With C10U A17U, the “polymerase ribozyme fitness (log ratio)” value was -3.22. Under C85U A91C stands ≤ -4.2; under U9A U78C G84U C99G A113U A115C G117U U135C U144A U148G, ≤ -4.2. With C8A U55A the figure was -3.18; with U61A C75U, -1.92; with U15G G59C A73G C85A, -2.7.

For G42U C116A U135G, the “polymerase ribozyme fitness (log ratio)” value was ≤ -4.2.

For the variant U9G A19U, the “polymerase ribozyme fitness (log ratio)” value was -4.09.

Take C14U A91G C116U U134A: the “polymerase ribozyme fitness (log ratio)” value is ≤ -4.2. Regarding U7C A41C C51U C54G U55A G58A C76G C87G C103A C125U, the “polymerase ribozyme fitness (log ratio)” value is ≤ -4.2. As to A26U A39U G94U A113U A119G U127C G152C, the “polymerase ribozyme fitness (log ratio)” value is ≤ -4.2.

As for A28G C57G G84A A98G C114U, the “polymerase ribozyme fitness (log ratio)” value was ≤ -4.2. For the variant A41C G46A U82A C116G, the “polymerase ribozyme fitness (log ratio)” value was -3.58.

In the case of U4C G58C, the “polymerase ribozyme fitness (log ratio)” value was 0.358. With G50U G62U U101C the figure was -1.

Turning to C76A C87U U139G U144A, the “polymerase ribozyme fitness (log ratio)” value is -2.07. Under C79G C85A C114U stands ≤ -4.2; under C85U U90C C103A, ≤ -4.2.

Turning to G88C U144G, the “polymerase ribozyme fitness (log ratio)” value is -3.7.

In the case of A52G G80U, the “polymerase ribozyme fitness (log ratio)” value is -3.34. On to U4C U53A C76G U90C U145C, for which the “polymerase ribozyme fitness (log ratio)” value is ≤ -4.2.

As for C8U C51A A60U C87U, the “polymerase ribozyme fitness (log ratio)” value is ≤ -4.2. Under A28U C35U C87G C103U A121G A122G stands ≤ -4.2; under A16U C32G A66U C72U C85G, ≤ -4.2; under A47U G71C G83A C118U, ≤ -4.2. Under A16U C18G A21U A98G C105U stands ≤ -4.2; under U4C A49U C93A, -3.07; under A17U G42C G59A C69U C96G G141A U146C, ≤ -4.2. With A19C C32U A37G A52G C87G A89U U90A C125G U139G the figure was ≤ -4.2; with A30G A52C A60C C125U, ≤ -4.2. For C36U C57A, the “polymerase ribozyme fitness (log ratio)” value was -0.483.

For C57U G84A C99A, the “polymerase ribozyme fitness (log ratio)” value is -1.59. In the case of A37G C85G, the “polymerase ribozyme fitness (log ratio)” value was -3.97. Under U9A A47G C69A G94A C96G U101C A121C A138G stands ≤ -4.2; under U45A A91G, -4.12; under C51G G71A A122G, ≤ -4.2. With C85G U144A C149U the figure was -3.7.

Consider C85A G141A U146G, for which the “polymerase ribozyme fitness (log ratio)” value was -1.68. Under U15A C87A A107U C108A stands ≤ -4.2; under A22G A89C, -0.303; under G81C C85U A97G U109G, -0.959. With C18U A26U U31A U53A G94U the figure was ≤ -4.2. With G58A G94A A106C the figure was -0.37; with U53G A91G, -3.94; with A52G C63G, -0.179.

On to C38G C96G, for which the “polymerase ribozyme fitness (log ratio)” value was -0.167. With G59A A60G U134C the figure was -0.132; with A21G G59C C85U U102C C116G U134A, -4.09. With C14U A30G G81A C85G A97G G133A the figure was ≤ -4.2; with A19G C93A A113U G141C, ≤ -4.2; with U55A U90A G100C C118U, ≤ -4.2. Under A37C C87U A119U G128C stands -3.46.

Consider C87A G141C, for which the “polymerase ribozyme fitness (log ratio)” value is ≤ -4.2. Under C35A U56A U102G C105A G152A stands ≤ -4.2; under A40G C51A G83A C96U U101G, ≤ -4.2. With C76U A147U the figure was 0.639; with G62C G68A U82G C93A A97G C118A G143U, ≤ -4.2.

On to A29G U31C A52G C57U C85U C87A A150U, for which the “polymerase ribozyme fitness (log ratio)” value is ≤ -4.2. With C36A A47U A52U U53A G59C A106G, the “polymerase ribozyme fitness (log ratio)” value was ≤ -4.2. With U4A U31G A37C G86C C123G the figure was ≤ -4.2; with A40G G84U A89U U104G, ≤ -4.2. For C14A A41C C51U A64U C76A A89G C95A G128A A150U, the “polymerase ribozyme fitness (log ratio)” value is ≤ -4.2. Under C5U A16U C54U C87U G117A A119U stands -1.75; under A121U C131U U134A, -2.42. With U7G A17U A52C C85U C116A the figure was -3.83; with G71C G86U A91C G133A, ≤ -4.2. For C76A A113C G141C U151A, the “polymerase ribozyme fitness (log ratio)” value is ≤ -4.2. Under G46A G50C C79A G84U C95U A115C stands ≤ -4.2.

Regarding U56A G86U, the “polymerase ribozyme fitness (log ratio)” value is -0.958. With G50A U53A the figure was -1.59. With U44A G50A C93G the figure was ≤ -4.2; with A52U C85U, -1.59.

Regarding U15A A30G U78G C87G, the “polymerase ribozyme fitness (log ratio)” value is ≤ -4.2. With C10G C18G A19C C87A A98U A115U G117U the figure was ≤ -4.2; with C36U U53A U78A G83A U90C, ≤ -4.2. Regarding A39G A49G C69U C123G G140C G141U, the “polymerase ribozyme fitness (log ratio)” value is ≤ -4.2. Under A24G U90C C123G G136C A147G stands ≤ -4.2; under A19U A28U G83C, ≤ -4.2.

For C57U G68A, the “polymerase ribozyme fitness (log ratio)” value was -3.56. Under A3C U31G U53A U55A C96A A115G G126A A142C stands ≤ -4.2. Take C18G C38U C72U: the “polymerase ribozyme fitness (log ratio)” value is -0.0428. With G46A U53G U56A A91C U104G G128U U146C the figure was ≤ -4.2. With U45A G86A, the “polymerase ribozyme fitness (log ratio)” value was -3.54. For A20G A26C A49C G68C C72G G81U C85A C93G G126C, the “polymerase ribozyme fitness (log ratio)” value is ≤ -4.2. Under A28C A39C stands ≤ -4.2; under C85G C105U, -1.58. With C87G C125U the figure was ≤ -4.2; with C32U C38U G58C, -2.43; with A17C C85U A120G G124U G143C, -3.22. With G92C C95U, the “polymerase ribozyme fitness (log ratio)” value was -0.22. Under C18A U31C A40C G62C A91C A119G stands ≤ -4.2; under C14U A41U C69A C85U, ≤ -4.2; under C14U G59A C87U U90G C114A, ≤ -4.2. With A17G A20U G84A A97U A115C the figure was -3.45; with C36U U61G U82G C85U, -3.95; with C32G U56A C57U C76A C93A C118G U135C, ≤ -4.2. Under G34U A47G G92U C99U A119C U146A stands ≤ -4.2; under A12U G48U C51A G58C U61G C114U, ≤ -4.2; under A24G A30G A52C U53G G59A C87U G92U G128A U139A, ≤ -4.2. Regarding A30U A39C A49C U104C C125G, the “polymerase ribozyme fitness (log ratio)” value was ≤ -4.2. With A19C U56A G65A C87U A97U the figure was -1.81. Under G42U G68C G94U stands ≤ -4.2; under A47C U53C C95A U104G A119U G136U, -3.11; under A3U U13G, 0.0481. Under C105G C116U U145A stands -0.747. As to A12G G58A U148C, the “polymerase ribozyme fitness (log ratio)” value is -1.8. Under A40C G88A A91G U144G stands ≤ -4.2; under G11A A41C G83C C123G, -2.58; under A60G A113G C114U U135A, -3.05.

Consider A3U C108G A121U, for which the “polymerase ribozyme fitness (log ratio)” value is ≤ -4.2. Consider C8U A40U, for which the “polymerase ribozyme fitness (log ratio)” value is -3.42. On to C99A C123G U145G, for which the “polymerase ribozyme fitness (log ratio)” value amounted to 0.0034. Under U56A G58A A73U C96G stands -1.81; under C8G A29U, -4.04. Under C5A G11C G50U G58C C85A stands -2.8. In the case of C85U A119G, the “polymerase ribozyme fitness (log ratio)” value is -1.31. As for C5U U45A, the “polymerase ribozyme fitness (log ratio)” value is -2.1.

Regarding G50A C85U, the “polymerase ribozyme fitness (log ratio)” value is -1.67. Under C93U C116G stands -2.2.
